In patent publication US20090291879A1 (published 2009):

B1: Tissue extracted bovine chondroadherin (ligand, UniProt Q27972 25-361, looked up)
chain: CPQNCHCHSDLQHVICDKVGLQKIPKVSEKTKLLNLQRNNFPVLATNSFRAMPNLVSLHLQHCQIREVAAGAFRGLKQLIYLYLSHNDIRVLRAGAFDDLTELTYLYLDHNKVTELPRGLLSPLVNLFILQLNNNKIRELRSGAFQGAKDLRWLYLSENSLSSLQPGALDDVENLAKFYLDRNQLSSYPSAALSKLRVVEELKLSHNPLKSIPDNAFQSFGRYLETLWLDNTNLEKFSDGAFLGVTTLKHVHLENNRLHQLPSNFPFDSLETLTLTNNPWKCTCQLRGLRRWLEAKTSRPDATCASPAKFRGQHIRDTDAFRGCKFPTKRSKKAGRH
B2: Synthetic peptide CQLRGLRRWLEAK (12-mer chondroadherin peptide plus an N-terminal cysteine) (peptide)
peptide: CQLRGLRRWLEAK
notes: also called 12-mer peptide

Assays:
[1] = target: T1, Integrin α2β1 on human chondrosarcoma cells (K9, K105) (human, UniProt P17301 30-1181; P05556 21-798); assay: adhesion of K9 cells to coated protein, 1 hour, N-acetylglucosaminidase read-out; receptor as attributed in paragraph 181
T1 construct: whole, on cells; The cells are not engineered; also called integrin α2β1 receptor; β1 integrin
T1 sequence (P17301 30-1181, chain 1 of 2): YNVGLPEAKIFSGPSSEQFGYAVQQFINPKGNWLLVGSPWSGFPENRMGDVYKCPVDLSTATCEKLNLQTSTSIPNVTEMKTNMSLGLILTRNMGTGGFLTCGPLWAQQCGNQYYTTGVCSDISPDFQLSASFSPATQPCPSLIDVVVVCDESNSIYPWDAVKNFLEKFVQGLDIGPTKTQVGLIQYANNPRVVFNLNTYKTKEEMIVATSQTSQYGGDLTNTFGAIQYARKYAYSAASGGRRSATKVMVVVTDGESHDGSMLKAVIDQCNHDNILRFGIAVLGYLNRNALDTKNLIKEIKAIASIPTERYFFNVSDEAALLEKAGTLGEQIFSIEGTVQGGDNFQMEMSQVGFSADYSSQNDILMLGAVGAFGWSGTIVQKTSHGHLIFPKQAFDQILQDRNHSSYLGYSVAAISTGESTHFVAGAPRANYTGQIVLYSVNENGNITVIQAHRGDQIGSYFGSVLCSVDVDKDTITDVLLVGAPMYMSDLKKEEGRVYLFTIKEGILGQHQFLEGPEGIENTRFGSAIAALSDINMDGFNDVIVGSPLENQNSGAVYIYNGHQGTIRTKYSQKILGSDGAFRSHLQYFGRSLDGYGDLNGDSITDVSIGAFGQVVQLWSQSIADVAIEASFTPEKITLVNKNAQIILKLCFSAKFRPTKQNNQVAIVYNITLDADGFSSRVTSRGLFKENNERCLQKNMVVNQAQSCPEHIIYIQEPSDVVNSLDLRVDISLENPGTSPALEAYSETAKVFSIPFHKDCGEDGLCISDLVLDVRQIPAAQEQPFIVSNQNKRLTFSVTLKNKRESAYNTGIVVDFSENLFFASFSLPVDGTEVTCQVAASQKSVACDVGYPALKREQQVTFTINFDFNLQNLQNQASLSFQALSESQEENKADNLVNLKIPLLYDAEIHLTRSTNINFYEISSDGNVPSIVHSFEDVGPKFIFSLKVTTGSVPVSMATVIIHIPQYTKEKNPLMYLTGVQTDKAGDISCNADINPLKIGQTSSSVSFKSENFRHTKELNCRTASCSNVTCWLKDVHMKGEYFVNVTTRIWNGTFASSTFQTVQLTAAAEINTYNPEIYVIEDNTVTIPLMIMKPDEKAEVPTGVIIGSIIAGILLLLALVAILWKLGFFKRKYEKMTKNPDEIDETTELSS
T1 sequence (P05556 21-798, chain 2 of 2): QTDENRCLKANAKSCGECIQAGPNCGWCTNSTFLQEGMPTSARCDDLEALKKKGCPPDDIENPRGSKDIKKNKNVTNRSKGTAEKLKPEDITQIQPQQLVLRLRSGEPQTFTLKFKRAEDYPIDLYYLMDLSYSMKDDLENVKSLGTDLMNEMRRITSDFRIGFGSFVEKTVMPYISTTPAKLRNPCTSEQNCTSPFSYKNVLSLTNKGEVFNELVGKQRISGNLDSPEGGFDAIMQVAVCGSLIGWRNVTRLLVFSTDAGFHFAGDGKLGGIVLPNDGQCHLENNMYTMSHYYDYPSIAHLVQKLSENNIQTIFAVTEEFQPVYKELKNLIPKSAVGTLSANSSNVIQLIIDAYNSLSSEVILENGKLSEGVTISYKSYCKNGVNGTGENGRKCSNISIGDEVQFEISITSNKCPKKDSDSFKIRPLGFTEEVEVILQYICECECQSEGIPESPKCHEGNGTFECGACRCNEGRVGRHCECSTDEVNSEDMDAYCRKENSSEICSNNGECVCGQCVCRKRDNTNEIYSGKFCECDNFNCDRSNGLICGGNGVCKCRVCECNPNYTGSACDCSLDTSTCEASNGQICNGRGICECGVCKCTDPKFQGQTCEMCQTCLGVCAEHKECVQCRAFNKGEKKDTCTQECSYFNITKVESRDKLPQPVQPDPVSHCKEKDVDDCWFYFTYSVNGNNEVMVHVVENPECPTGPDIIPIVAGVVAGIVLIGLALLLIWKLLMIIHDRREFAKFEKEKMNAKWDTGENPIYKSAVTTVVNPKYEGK
Description: To test cell binding, the chondrosarcoma cells or bovine chondrocytes were suspended in PBS containing 0.1% BSA, 25 U/ml collagenase and added to the wells (50,000/well), in the absence or presence of various peptide pools or the synthetic peptides (200, 100, 50, 25, 12.5 μg/ml). Non-adherent cells were removed after 1 hour and adhesion was determined by measuring lysosomal N-acetylglucosaminidase (12). Adhesion and spreading was visualized by light microscopy. In the time studies, k105 cells were allowed to adhere for 30 minutes, unbound cells were removed and medium without serum supplemented with or without peptides (250 μg/ml), β1 integrin antibody (clone P4C10, Gibco BRL), EDTA (5 mM) was added. Cell morphology was visualized by light microscopy after 1, 3 and 20 hours.
48-well tissue culture dishes were coated with 5 μg/ml collagen type II, tissue extracted bovine chondroadherin, human chondroadherin expressed in EBNA cells and human chondroadherin expressed in E. coli and blocked for non-specific binding with BSA. The cells were allowed to adhere for 1 hour at 37° C. Nonadherent cells were removed by washing and adhesion was determined by analyzing lysosomal N-acetylglucosaminidase. Adhesion is expressed in number of cells, 50,000 cells/well were seeded.

[2] = target: T1, Integrin α2β1 on human chondrosarcoma …; assay: adhesion of k105 cells to coated peptide, light microscopy; receptor as attributed in paragraph 163 and paragraph 181

Row | Binder | binding result [1] | binding result [2]
1 | B1 | binds | 
2 | B2 |  | binds
